From publication PMC5408610, “Identification and characterization of a 20β-HSDH from the anaerobic gut bacterium Butyricicoccus desmolans ATCC 43058” (Journal of Lipid Research, 2017) come the findings set out here.

Series [1] deals with 20β-hydroxysteroid dehydrogenase (20β-HSDH) from Butyricicoccus desmolans ATCC 43058 (Butyricicoccus desmolans ATCC 43058). Nature of the series: SEC; Superdex 200 analytical column, 4°C; 50 mM Tris-Cl, 300 mM NaCl, 10% glycerol, 10 mM 2-mercaptoethanol, 0.1% Triton X-100, pH 7.5; native mass from retention volume against standard proteins, divided by the subunit mass from SDS-PAGE. On the technique in general: Size exclusion chromatography separates by hydrodynamic size, large species first.

Substrate in the series “purified protein”: C[C@]12CCC(=O)C=C1CC[C@@H]1[C@@H]2[C@@H](O)C[C@@]2(C)[C@H]1CC[C@]2(O)C(=O)CO
Nature of the series: purified protein. It counts as biochemical, Agathobaculum desmolans. The conditions noted are these: reductive direction, saturating NADH, 0.05 μM enzyme, standard assay 50 mM phosphate pH 7.5, temperature not stated for Km.

As usually defined, the stoichiometry N is a count of units in the complex or per binding partner. As to “20β-hydroxysteroid dehydrogenase (20β-HSDH) from Butyricicoccus desmolans ATCC 43058 (enzyme)”, the stoichiometry N in series [1] was found to be 3.96.

B1: 20β-HSDH (r20β-HSDH, desE) of B. desmolans ATCC 43058 (Agathobaculum desmolans ATCC 43058) (protein)
chain: MAEEFYAVYPKDAWKDPSYRLMDKFSLKGKKGFVTGGGGGIGRNTAAAWAEAGADVALVDIPASKDRLEPLAKEMSERYGVKVVPLYCDVSDEEQVNALKDDLIRELGTVDFAHINAGVCLMGDDVDVPYSTWKKVIDIDLNGAFMTAQVAQQIMREHNHGGSIIMTSSLSGYNANFIGGGPSPVCAYGTAKAGISQLARYMGAGLAPYGIRVNTISPGYIWSGIHEGVMDKAGHDMCLEVVPIKRFGRTDELQGVMLFLASEASSYITGINIPVDGGYSIF
notes: N-terminal Strep-tag from pET-51b(+), E. coli BL21-CodonPlus(DE3) RIPL
Broadly, the Km is the substrate concentration at which the rate is half of its maximum. By Vmax is commonly meant the rate approached at saturating substrate. Take B1: in the series “purified protein”, the Km was found to be 0.80 ± 0.06 µM and the Vmax was determined as 30.4 µmol/min.
